From US20060194720A1 (SANWA KAGAKU KENKYUSHO, published 2006)
Where no end group is shown, it is not given here.

biological target: human GLP-1 receptor (human, UniProt P43220 24-463); experiment: cell-based or functional assay

Binder	Cyclic AMP-producing activity, relative to naturally occurring GLP-1 (=100%), at 1 × 10^-10 M [%]	Cyclic AMP-producing activity, relative to naturally occurring GLP-1 (=100%), at 1 × 10^-11 M [%]	Cyclic AMP-producing activity, relative to naturally occurring GLP-1 (=100%), at × 10^-9 M [%]
HSEGTFTSDVSSYLEGQAAKEFIAWLVKGRKK-NH2 [[Ser^8]-GLP-1 (7-35)-Arg-Lys-Lys-NH2]	104	53.2	88.8
HSEGTFTSDVSSYLEGQAAKEFIAWLVKGKKKKKKKR-NH2 [[Ser^8]-GLP-1 (7-35)-Lys-Lys-Lys-Lys-Lys-Lys-Lys-Arg-NH2]	55.6	8.8	92.6
HSEGTFTSDVSSYLEGQAAKEFIAWLVKGRRRR-NH2 [[Ser^8]-GLP-1 (7-35)-Arg-Arg-Arg-Arg-NH2]	75.6	-17	102
HSEGTFTSDVSSYLEGQAAKEFIAWLVKGKKKKKR-NH2 [[Ser^8]-GLP-1 (7-35)-Lys-Lys-Lys-Lys-Lys-Arg-NH2]	55.3	7.9	63.4
HSEGTFTSDVSSYLEGQAAKEFIAWLVKGKKKKKKKKKKR-NH2 [[Ser^8]-GLP-1 (7-35)-Lys-Lys-Lys-Lys-Lys-Lys-Lys-Lys-Lys-Lys-Arg-NH2]	20.8	7.5	55.4
HSEGTFTSDVSSYLEGQAAKEFIAWLVKGRRRRRRRRR-NH2 [[Ser^8]-GLP-1 (7-35)-Arg-Arg-Arg-Arg-Arg-Arg-Arg-Arg-Arg-NH2]	87.4	74.5	95.9
HSEGTFTSDVSSYLEGQAAKEFIAWLVKGKR-NH2 [[Ser^8]-GLP-1 (7-35)-Lys-Arg-NH2]	113	100	80.5
HSEGTFTSDVSSYLEGQAAKEFIAWLVKGRRRRR-NH2 [[Ser^8]-GLP-1 (7-35)-Arg-Arg-Arg-Arg-Arg-NH2]	64.7	34	106
HSEGTFTSDVSSYLEGQAAKEFIAWLVKGR-NH2 [[Ser^8]-GLP-1 (7-35)-Arg-NH2]	111	97.9	83.6

Second part, the binder after the results:

Cyclic AMP-producing activity, relative to naturally occurring GLP-1 (=100%), at 1 × 10^-10 M [%]	Cyclic AMP-producing activity, relative to naturally occurring GLP-1 (=100%), at 1 × 10^-11 M [%]	Cyclic AMP-producing activity, relative to naturally occurring GLP-1 (=100%), at × 10^-9 M [%]	Binder
95.5	56.4	91.2	HSEGTFTSDVSSYLEGQAAKEFIAWLVKGRRR-NH2 [[Ser^8]-GLP-1 (7-35)-Arg-Arg-Arg-NH2]
88.9	36.2	81.6	HSEGTFTSDVSSYLEGQAAKEFIAWLVKGKKR-NH2 [[Ser^8]-GLP-1 (7-35)-Lys-Lys-Arg-NH2]
48.6	54.3	75.6	HSEGTFTSDVSSYLEGQAAKEFIAWLVKGRRRRRR-NH2 [[Ser^8]-GLP-1 (7-35)-Arg-Arg-Arg-Arg-Arg-Arg-NH2]
96.6	45	86.7	HSEGTFTSDVSSYLEGQAAKEFIAWLVKGKKKR-NH2 [[Ser^8]-GLP-1 (7-35)-Lys-Lys-Lys-Arg-NH2]
81.1	64.9	80.6	HSEGTFTSDVSSYLEGQAAKEFIAWLVKGRRRRRRR-NH2 [[Ser^8]-GLP-1 (7-35)-Arg-Arg-Arg-Arg-Arg-Arg-Arg-NH2]
